Laboratory results: article PMC6698652, “Boundaries of eliminated heterochromatin of Tetrahymena are positioned by the DNA-binding protein Ltl1”

Columns and labels:
[1] = biological target: T1, MBP-Ltl1 (Tetrahymena thermophila) (UniProt I7MGR7); assay: EMSA; conditions: EMSA as in Carle et al. (ref 20), binding buffer and temperature not given; probes annealed in 10 mM Tris pH 7.5, 5% glycerol, 100 mM KCl; protein dialyzed in …
T1 sequence: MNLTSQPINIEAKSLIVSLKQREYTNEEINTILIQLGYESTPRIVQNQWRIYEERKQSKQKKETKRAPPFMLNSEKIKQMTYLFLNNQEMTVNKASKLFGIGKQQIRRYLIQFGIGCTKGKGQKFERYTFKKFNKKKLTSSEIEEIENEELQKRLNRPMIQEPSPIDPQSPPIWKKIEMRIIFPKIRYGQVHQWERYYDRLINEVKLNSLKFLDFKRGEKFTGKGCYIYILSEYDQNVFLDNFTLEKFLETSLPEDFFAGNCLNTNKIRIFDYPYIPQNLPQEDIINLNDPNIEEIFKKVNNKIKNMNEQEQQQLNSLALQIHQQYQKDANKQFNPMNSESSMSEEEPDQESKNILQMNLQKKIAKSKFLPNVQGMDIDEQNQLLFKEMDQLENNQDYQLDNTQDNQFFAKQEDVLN

[2] = biological target: T2, MBP-Ltl1 (Tetrahymena thermophila, UniProt I7MGR7 1-417); assay: EMSA; EMSA as in Carle et al. (ref 20), binding buffer and temperature not given; probes annealed in 10 mM Tris pH 7.5, 5% glycerol, 100 mM KCl; protein dialyzed in 50 mM Tris pH 7.5, 100 mM KCl, 10% glycerol, 1 mM MnSO4, 1 mM MgCl2, 1 mM ZnSO4; conditions: protein: recombinant; MBP (pMAL fusion); label: 5' 32P; blunt
T2 sequence: T1 sequence

[3] = biological target: T2, MBP-Ltl1; assay: EMSA; majority of probe in G-quadruplex form; EMSA as in Carle et al. (ref 20), binding buffer and temperature not given; probes annealed in 10 mM Tris pH 7.5, 5% glycerol, 100 mM KCl; protein dialyzed in 50 mM Tris pH 7.5, 100 mM KCl, 10% glycerol, 1 mM MnSO4, 1 mM MgCl2, 1 mM ZnSO4; conditions: protein: recombinant; MBP (pMAL fusion); label: 5' 32P

Question: How did the Kd [1] turn out when “TTATTTGATTAATTAATTTTATTTACGGTAAAGGTTTATATATTAAGGCCACAATATAC (double strand) [D IES left flank -30/-88 ds (IESD_EMSA_probe1)]” was run?
Answer: 350 nM

Question: How did the Kd [1] turn out when “GAAATTAATATAATTATAATTTTAAACAGTGTAAAACCCAAAAAGCTA (double strand) [R IES left flank -40/-88 ds (R_IES_EMSA_probe2)]” was run?
Answer: 350 nM

B1: D IES left flank -70/-120 (IESD_EMSA_L-70/120) (dsDNA)
DNA 1: AAAATTTATATATATTTGAATCCTAAGATTCTGTCTTATTTGATTAATTAA
DNA 2: TTAATTAATCAAATAAGACAGAATCTTAGGATTCAAATATATATAAATTTT
Question: B1 was tested. Which Kd [2] did it give?
Answer: ~43 nM

B2: D IES right flank -67/-120 (IESD_EMSA_R-67/120) (dsDNA)
DNA 1: TTTGAATCCTAAGATTCTACTTTATTTAGCATTTTTTATATTAAGTAATTTA
DNA 2: TAAATTACTTAATATAAAAAATGCTAAATAAAGTAGAATCTTAGGATTCAAA
Question: With B2 as the molecule, how does the Kd [2] read?
Answer: ~42.5 nM

B3: M IES left flank G4 (M1_A5G5_FW) (structured_DNA)
DNA: TTTATTAATCAAAAAGGGGGTAAATAATAA
Question: Which Kd [3] does the source give for B3 here?
Answer: ~350 nM
